Results from the supplement of paper PMC9112550, “Optimization of the antimicrobial peptide Bac7 by deep mutational scanning” (BMC Biology, 2022).

System: Escherichia coli TOP10
Experiment: shrunken log2 fold change of peptide-encoding DNA abundance (4.5 h post-induction vs induction); higher = less antimicrobial activity (less host growth inhibition)
Settings: time post-induction: 4.5 h; library: site-saturation at positions 5, 18, 19, 20
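Note: peptides expressed intracellularly from a pBAD plasmid library in pooled LB shake-flask culture, induced with 0.3% L-arabinose, DNA abundance read by NGS, three biological replicates, DESeq2 with apeglm shrinkage.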

Sequence | shrunken log2 fold change
RRIRCRPPRLPRPRPRPPEVPRP | 0.124
RRIRARPPRLPRPRPRPTTGPRP | 0.331
RRIRCRPPRLPRPRPRPRREPRP | 0.746
RRIRLRPPRLPRPRPRPNGVPRP | 0.0191
RRIRPRPPRLPRPRPRPQYSPRP | -0.0482
RRIRNRPPRLPRPRPRPIRWPRP | 0.18
RRIRFRPPRLPRPRPRPQKGPRP | 0.107
RRIRTRPPRLPRPRPRPWFCPRP | -0.392
RRIRPRPPRLPRPRPRPITLPRP | 0.0118
RRIRLRPPRLPRPRPRPLIPPRP | -0.41
RRIRVRPPRLPRPRPRPSQFPRP | -0.952
RRIRCRPPRLPRPRPRPQYEPRP | -0.119
RRIRSRPPRLPRPRPRPFMPPRP | -0.149
RRIRVRPPRLPRPRPRPASTPRP | -0.311
RRIRARPPRLPRPRPRPHGWPRP | 0.184
RRIRQRPPRLPRPRPRPIMAPRP | -0.0123
RRIRNRPPRLPRPRPRPDMSPRP | 0.000831
RRIRGRPPRLPRPRPRPHEDPRP | 3.55
RRIRNRPPRLPRPRPRPQFEPRP | -0.013
RRIRWRPPRLPRPRPRPQWTPRP | 0.787
RRIRARPPRLPRPRPRPGRAPRP | 0.731
RRIRNRPPRLPRPRPRPDAVPRP | 0.0764
RRIRDRPPRLPRPRPRPTWFPRP | 0.295
RRIRSRPPRLPRPRPRPWYLPRP | -0.617
RRIRYRPPRLPRPRPRPIDYPRP | -0.0298

Sequence | shrunken log2 fold change
RRIRLRPPRLPRPRPRPSRYPRP | -0.0576
RRIRMRPPRLPRPRPRPKRLPRP | 0.0697
RRIRIRPPRLPRPRPRPNPNPRP | -0.556
RRIRTRPPRLPRPRPRPETRPRP | -0.0794
RRIRRRPPRLPRPRPRPGKHPRP | -0.0322
RRIRGRPPRLPRPRPRPILAPRP | 0.492
RRIRERPPRLPRPRPRPNWNPRP | -0.236
RRIRWRPPRLPRPRPRPPGYPRP | 0.684
RRIRARPPRLPRPRPRPIATPRP | 1.21
RRIRIRPPRLPRPRPRPTKSPRP | -0.141
RRIRYRPPRLPRPRPRPPRKPRP | 0.319
RRIRLRPPRLPRPRPRPQVGPRP | -0.203
RRIRCRPPRLPRPRPRPYPEPRP | -0.0664
RRIRARPPRLPRPRPRPYVDPRP | -0.16
RRIRARPPRLPRPRPRPSAAPRP | 0.848
RRIRLRPPRLPRPRPRPFEPPRP | 0.00273
RRIRWRPPRLPRPRPRPLCPPRP | 0.0748
RRIRPRPPRLPRPRPRPQQDPRP | -0.301
RRIRFRPPRLPRPRPRPNSQPRP | -0.496
RRIRERPPRLPRPRPRPCVKPRP | -0.00643
RRIRNRPPRLPRPRPRPMSLPRP | -0.0381
RRIRVRPPRLPRPRPRPSIFPRP | -0.606
RRIRRRPPRLPRPRPRPVWCPRP | 0.273
RRIRHRPPRLPRPRPRPMRTPRP | -0.11
RRIRERPPRLPRPRPRPAYYPRP | -0.356

Sequence | shrunken log2 fold change
RRIRKRPPRLPRPRPRPKLGPRP | 0.0679
RRIRGRPPRLPRPRPRPEDYPRP | 0.555
RRIRSRPPRLPRPRPRPRFHPRP | -0.302
RRIRDRPPRLPRPRPRPIPDPRP | -0.0185
RRIRMRPPRLPRPRPRPVFLPRP | 0.0386
RRIRTRPPRLPRPRPRPYISPRP | -0.382
RRIRWRPPRLPRPRPRPTHTPRP | -0.252
RRIRMRPPRLPRPRPRPNERPRP | 0.69
RRIRIRPPRLPRPRPRPWHKPRP | -0.00213
RRIRHRPPRLPRPRPRPIPKPRP | -0.0389
RRIRERPPRLPRPRPRPPTSPRP | 0.0163
RRIRSRPPRLPRPRPRPAWFPRP | 0.171
RRIRVRPPRLPRPRPRPIEDPRP | -0.0208
RRIRMRPPRLPRPRPRPRVYPRP | 0.0557
RRIRYRPPRLPRPRPRPIWSPRP | -0.0646
RRIRCRPPRLPRPRPRPWWLPRP | -0.0111
RRIRRRPPRLPRPRPRPTKAPRP | 0.372
RRIRIRPPRLPRPRPRPAYLPRP | -0.376
RRIRQRPPRLPRPRPRPNITPRP | -0.495
RRIRQRPPRLPRPRPRPNTRPRP | -0.0754
RRIRDRPPRLPRPRPRPYWDPRP | -0.766
RRIRDRPPRLPRPRPRPRWPPRP | 0.594
RRIRLRPPRLPRPRPRPFTVPRP | 0.0023
RRIRHRPPRLPRPRPRPEYCPRP | -0.201
RRIRVRPPRLPRPRPRPYYTPRP | -1.39

Sequence | shrunken log2 fold change
RRIRWRPPRLPRPRPRPENNPRP | -0.0683
RRIRIRPPRLPRPRPRPNTDPRP | -0.703
RRIRTRPPRLPRPRPRPPTPPRP | 0.368
RRIRKRPPRLPRPRPRPPMEPRP | 0.135
RRIRSRPPRLPRPRPRPHAQPRP | 0.0587
RRIRSRPPRLPRPRPRPRLMPRP | 0.198
RRIRHRPPRLPRPRPRPYDEPRP | -0.0392
RRIRQRPPRLPRPRPRPGFRPRP | 0.0901
RRIRMRPPRLPRPRPRPQAIPRP | -0.00149
RRIRDRPPRLPRPRPRPLCMPRP | 0.43
RRIRMRPPRLPRPRPRPWSYPRP | 0.206
RRIRTRPPRLPRPRPRPIDCPRP | 0.0429
RRIRYRPPRLPRPRPRPLCLPRP | -0.341
RRIRHRPPRLPRPRPRPDWLPRP | 0.0441
RRIRPRPPRLPRPRPRPFPIPRP | -0.371
RRIRPRPPRLPRPRPRPHSHPRP | 0.00335
RRIRWRPPRLPRPRPRPMDCPRP | -0.0839
RRIRCRPPRLPRPRPRPPKWPRP | 0.447
RRIRERPPRLPRPRPRPSLWPRP | -0.151
RRIRARPPRLPRPRPRPDDKPRP | -0.112
RRIRQRPPRLPRPRPRPTYVPRP | -0.161
RRIRARPPRLPRPRPRPHQGPRP | -0.0611
RRIRFRPPRLPRPRPRPCEAPRP | 0.122
RRIRFRPPRLPRPRPRPRCQPRP | 0.24
RRIRTRPPRLPRPRPRPDTLPRP | 0.00154

Sequence | shrunken log2 fold change
RRIRSRPPRLPRPRPRPLMRPRP | 0.948
RRIRMRPPRLPRPRPRPRVPPRP | 0.83
RRIRCRPPRLPRPRPRPYVQPRP | -0.113
RRIRTRPPRLPRPRPRPEDHPRP | -0.0554
RRIRNRPPRLPRPRPRPYSWPRP | -0.814
RRIRCRPPRLPRPRPRPIQWPRP | -0.263
RRIRERPPRLPRPRPRPRDQPRP | 0.424
RRIRGRPPRLPRPRPRPCHNPRP | 0.033
RRIRDRPPRLPRPRPRPYWFPRP | -0.579
RRIRCRPPRLPRPRPRPVYKPRP | -0.595
RRIRFRPPRLPRPRPRPQEWPRP | -0.149
RRIRIRPPRLPRPRPRPIHTPRP | -0.907
RRIRSRPPRLPRPRPRPRKEPRP | 0.131
RRIRSRPPRLPRPRPRPDLEPRP | -0.0903
RRIRMRPPRLPRPRPRPDHQPRP | 0.143
RRIRTRPPRLPRPRPRPIDEPRP | 0.0904
RRIRYRPPRLPRPRPRPNTYPRP | -0.988
RRIRKRPPRLPRPRPRPWIIPRP | -0.277
RRIRARPPRLPRPRPRPGRDPRP | 0.671
RRIRCRPPRLPRPRPRPHVDPRP | -0.617
RRIRSRPPRLPRPRPRPIFNPRP | -0.317
RRIRKRPPRLPRPRPRPNHIPRP | -0.358
RRIRCRPPRLPRPRPRPCWWPRP | 0.904
RRIRDRPPRLPRPRPRPHWDPRP | -0.0788
RRIRRRPPRLPRPRPRPFSRPRP | 0.18

Sequence | shrunken log2 fold change
RRIRHRPPRLPRPRPRPWSHPRP | 0.0143
RRIRARPPRLPRPRPRPSARPRP | 0.479
RRIRVRPPRLPRPRPRPFFGPRP | -0.0414
RRIRWRPPRLPRPRPRPYPHPRP | -0.184
RRIRGRPPRLPRPRPRPHCRPRP | 0.376
RRIRVRPPRLPRPRPRPARHPRP | 0.287
RRIRSRPPRLPRPRPRPCISPRP | -0.0391
RRIRPRPPRLPRPRPRPFLLPRP | -0.516
RRIRRRPPRLPRPRPRPTPVPRP | 0.969
RRIRQRPPRLPRPRPRPDPGPRP | -0.00151
RRIRERPPRLPRPRPRPRCHPRP | -0.464
RRIRIRPPRLPRPRPRPVALPRP | -0.278
RRIRGRPPRLPRPRPRPPPEPRP | 2.01
RRIRYRPPRLPRPRPRPHGPPRP | -0.239
RRIRPRPPRLPRPRPRPRCFPRP | 0.155
RRIRARPPRLPRPRPRPMTSPRP | 0.237
RRIRGRPPRLPRPRPRPYHMPRP | -0.345
RRIRYRPPRLPRPRPRPLTAPRP | -0.492
RRIRYRPPRLPRPRPRPKDKPRP | -0.536
RRIRVRPPRLPRPRPRPKVAPRP | 0.12
RRIRQRPPRLPRPRPRPAACPRP | 0.183
RRIRWRPPRLPRPRPRPVGMPRP | 0.456
RRIRQRPPRLPRPRPRPWGAPRP | 0.351
RRIRRRPPRLPRPRPRPHWEPRP | 0.127
RRIRCRPPRLPRPRPRPAGMPRP | 0.104
